According to patent US8138151B2, “Peptides” (Faron Ventures Oy, priority 2006, dated 2012):
Entries after “also recorded” stand apart in the source; their conditions may differ.

Assays:
[1] = target: T1, purified recombinant VAP-1 (Homo sapiens, UniProt Q16853); assay: ELISA binding of biotinylated synthetic peptides to immobilized VAP-1; details: wells coated with VAP-1, BSA as negative control; streptavidin-HRP chemiluminescence detection
T1 sequence (Q16853 1-763): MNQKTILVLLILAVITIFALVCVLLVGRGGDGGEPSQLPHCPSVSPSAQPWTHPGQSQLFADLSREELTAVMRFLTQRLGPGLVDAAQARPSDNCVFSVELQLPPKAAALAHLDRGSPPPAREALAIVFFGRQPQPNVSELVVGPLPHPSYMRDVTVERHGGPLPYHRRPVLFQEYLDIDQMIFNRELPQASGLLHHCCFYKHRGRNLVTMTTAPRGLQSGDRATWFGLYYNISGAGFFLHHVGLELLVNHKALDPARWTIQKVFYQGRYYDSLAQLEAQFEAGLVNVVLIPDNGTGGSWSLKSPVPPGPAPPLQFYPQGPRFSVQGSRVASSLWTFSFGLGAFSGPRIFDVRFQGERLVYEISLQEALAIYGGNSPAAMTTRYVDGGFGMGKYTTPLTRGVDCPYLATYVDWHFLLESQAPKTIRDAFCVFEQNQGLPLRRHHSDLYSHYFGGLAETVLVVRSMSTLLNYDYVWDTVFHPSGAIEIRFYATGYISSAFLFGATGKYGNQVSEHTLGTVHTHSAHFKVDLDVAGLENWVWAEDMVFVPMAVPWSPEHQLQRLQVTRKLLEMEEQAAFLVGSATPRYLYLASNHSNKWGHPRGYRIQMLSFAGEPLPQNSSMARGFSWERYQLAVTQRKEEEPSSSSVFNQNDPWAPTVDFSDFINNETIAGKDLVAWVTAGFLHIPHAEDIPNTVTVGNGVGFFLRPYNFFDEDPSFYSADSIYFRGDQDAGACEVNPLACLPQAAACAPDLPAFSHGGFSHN
Description: Binding of peptides to VAP-1. VAP-1 and BSA as a negative control were immobilized in wells of Nunc Maxisorp 96-well ELISA plate overnight at 4° C., blocked with PBS/3% BSA for 1 h at 37° C. and incubated with biotinylated peptides (10 micrograms/ml or 100 micrograms/ml) for 2 h at room temperature. The wells were washed with PBS/0.1% Tween, incubated with HRP conjugated streptavidin for 1 h at room temperature and after washing a BM chemiluminescence ELISA substrate was added. Luminescence was measured with a luminometer (Tecan Ultra, Tecan, Zürich, Switzerland).

recombinant VAP-1 = target: T2, recombinant VAP-1 (Homo sapiens, UniProt Q16853); assay: ELISA binding of Siglec-10-Ig-chimera to recombinant VAP-1; details: chimera immobilized via anti-human IgG; VAP-1 detected with biotinylated TK-8-18
T2 sequence (Q16853 1-763): T1 sequence (Q16853 1-763)
Description: Siglec 10-Fc chimera binding to VAP-1. Anti-human IgG (Fc specific) antibody was coated onto Nunc Maxisorp wells overnight at 4° C. After blocking with PBS/2% BSA, Siglec-10-Ig-chimera (1 microgram/ml) was immobilized to wells via its Fc-tail for 2 h at room temperature and thereafter, recombinant VAP-1 ([…] incubated in wells for 2 h at room temperature. After washing the wells with PBS/0.1% Tween, biotinylated anti-human VAP-1 antibody (TK-8-18) was incubated in the wells for 1 h at room temperature and after that, the wells were incubated with HRP conjugated streptavidin for 1 h at room temperature. After washing the wells, a BM chemiluminescence ELISA substrate was added to the wells and luminescence was measured with Tecan luminometer.

[2] = target: T3, VAP-1 expressed on the cell surface (CHO-VAP-1 cells) (Homo sapiens, UniProt Q16853); assay: Epitope analysis: competitive surface staining of CHO-VAP-1 cells with anti-VAP-1 mAb, flow cytometry; assay type: cell-based; details: cells expressing VAP-1 first incubated with 10 micrograms/ml protein, then anti-VAP-1 (JG2.10)
T3 construct: expressed in transfected cells; host or cells: CHO cells (CHO-VAP-1)
T3 sequence (Q16853 1-763): T1 sequence (Q16853 1-763)
Description: Surface stainings of CHO-VAP-1 and CHO-mock cells were performed using anti-VAP-1 (JG2.10) and a negative control (9B5) mAbs. Competitive stainings were done in the presence of 10 micrograms/ml either human Ig or Siglec-10-Ig. Alexa546-conjugated goat anti-rat IgG was used as the secondary reagent. All cells were analyzed using FACSCalibur and Cellquest software.

[3] = target: T4, VAP-1 (SSAO enzymatic activity) (Homo sapiens, UniProt Q16853); assay: Isotopic enzyme assay of SSAO activity of VAP-1 (14C-benzylamine, CHO-VAP-1 cell lysate); assay type: biochemical; details: 30 min preincubation with CHO-VAP-1 lysate
T4 construct: expressed in transfected cells; host or cells: CHO cells (CHO-VAP-1)
T4 sequence (Q16853 1-763): T1 sequence (Q16853 1-763)
Description: Semicarbazide sensitive mine oxidase (SSAO) enzymatic activity of VAP-1 after interaction with Siglec-10 was determined radiochemically. Briefly, 14-C labeled benzylamine (a model substrate for SSAO) was used as the substrate. The assay was performed at 37° C. for 120 minutes in a final volume of 400 microliters 0.1 mM Krebs-Ringer phosphate glucose buffer (pH 7.35) containing CHO-VAP-1 cell lysate and 5 microM benzylamine with tracer ^14C benzylamine (40 000 dpm) in the presence of 1 mM clorgyline (a MAO inhibitor). In the inhibitory studies, the lysate was preincubated 30 minutes with 10 micrograms/ml or 70 micrograms/ml Siglec-10-Ig-chimera or 1 mM semicarbazide before adding the benzylamine. Catalytic reaction was stopped with citric acid, and the aldehyde reaction products were extracted from the analyzed mixture into toluene containing 0.35 g/L diphenyloxazole. The amount of 14C-labeled benzaldehyde was quantified by scintillation counting using a beta-counter Wallac-1409 (Turku, Finland), and the activity of the enzyme was expressed as picomoles of benzaldehyde formed by milliliter of lysate per hour.

CARLSLSWRGLTLCPS (listed as Homo sapiens) [P5]
Binding of biotinylated synthetic peptide to VAP-1 (ELISA) [1]: bound specifically to wells coated with purified VAP-1 in comparison to BSA

CATLSWVLQNRVLSSC (listed as Homo sapiens) [P3, longer peptide matching Siglec-10 residues 284-297, cysteines added to both ends]
Binding of biotinylated synthetic peptide to VAP-1 (ELISA) [1]: bound specifically to wells coated with purified VAP-1 in comparison to BSA

CVKWRGVVVC (Phage display library peptide) [peptide P1]
Binding of biotinylated synthetic peptide to VAP-1 (ELISA) [1]: shown to bind to VAP-1; also recorded: efficiently bound to purified recombinant VAP-1

CWSFRNRVLC (Phage display library peptide) [peptide P2]
Binding of biotinylated synthetic peptide to VAP-1 (ELISA) [1]: shown to bind to VAP-1; also recorded: efficiently bound to purified recombinant VAP-1

Siglec-10-Ig-chimera: Siglec-10 fused to an Ig Fc-tail, counter-receptor for VAP-1
Interaction of Siglec-10-Ig-chimera with purified VAP-1 (ELISA) (recombinant VAP-1): interacts with VAP-1 | Cells positive for anti-VAP-1 antibody staining [2]: 43.7% | Inhibition of SSAO activity of VAP-1 ([3]; 10 μg/ml (~7 nM)): 20% | Inhibition of SSAO activity of VAP-1 ([3]; 70 μg/ml (~50 nM)): 30%
